Earlier results, collected in patent publication US7531621B1, “PTH2 receptor selective compounds” (Societe de Conseils de Recherches et d'Applications …, priority 1999, dated 2009).

Experiments:
[1] = biological target: T1, PTH/PTHrP receptor (Homo sapiens, UniProt Q03431); details: result in words, background
T1 sequence (Q03431 27-593): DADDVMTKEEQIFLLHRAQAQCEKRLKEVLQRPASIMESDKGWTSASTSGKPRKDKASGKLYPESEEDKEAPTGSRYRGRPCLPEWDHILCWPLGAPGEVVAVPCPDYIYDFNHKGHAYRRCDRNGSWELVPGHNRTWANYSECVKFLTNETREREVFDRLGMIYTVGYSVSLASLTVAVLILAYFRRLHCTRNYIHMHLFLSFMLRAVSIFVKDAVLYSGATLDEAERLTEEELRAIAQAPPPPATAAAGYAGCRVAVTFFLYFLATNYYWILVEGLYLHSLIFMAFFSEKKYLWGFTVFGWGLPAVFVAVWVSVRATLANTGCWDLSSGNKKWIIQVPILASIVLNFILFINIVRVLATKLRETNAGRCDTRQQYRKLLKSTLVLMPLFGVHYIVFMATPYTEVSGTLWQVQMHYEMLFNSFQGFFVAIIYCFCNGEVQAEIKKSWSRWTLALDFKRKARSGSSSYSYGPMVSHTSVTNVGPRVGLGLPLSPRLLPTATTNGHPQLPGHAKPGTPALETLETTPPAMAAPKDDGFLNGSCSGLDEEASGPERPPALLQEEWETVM

[2] = biological target: PTH2 receptor (Homo sapiens, UniProt P49190); details: result in words, background
Chain of PTH2 receptor (P49190 25-550): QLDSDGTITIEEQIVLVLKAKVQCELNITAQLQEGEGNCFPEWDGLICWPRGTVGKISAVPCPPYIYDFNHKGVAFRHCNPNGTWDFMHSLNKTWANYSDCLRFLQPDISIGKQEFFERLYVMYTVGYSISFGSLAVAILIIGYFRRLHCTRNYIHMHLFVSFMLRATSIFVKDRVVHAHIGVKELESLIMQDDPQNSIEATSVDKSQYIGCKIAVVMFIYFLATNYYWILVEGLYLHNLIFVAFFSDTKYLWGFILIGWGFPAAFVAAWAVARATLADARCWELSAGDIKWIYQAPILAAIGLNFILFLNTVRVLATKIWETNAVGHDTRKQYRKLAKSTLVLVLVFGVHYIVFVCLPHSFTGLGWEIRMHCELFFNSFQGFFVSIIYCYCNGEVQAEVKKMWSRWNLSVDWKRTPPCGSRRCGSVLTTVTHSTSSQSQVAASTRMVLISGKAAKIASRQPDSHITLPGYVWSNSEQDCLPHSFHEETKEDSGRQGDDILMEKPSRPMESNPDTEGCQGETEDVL

Row | binding and activation of the PTH/PTHrP receptor [1] | activation of the PTH2 receptor [2] | Substance
1 | binds and activates both receptors | acts as a PTH-2 receptor agonist | Ile^5-PTHrP-(1-34) NH2
2 | binds and is activated by both | selectively activated | PTH-(1-34)
3 | – | weakly activate | PTHrP (7-34)
